Test results reported in US20210252150A1.
Like-named read-outs stand apart in the source and are kept apart here.

Experiments:
[1] = molecular target: HA of A/Texas/36/1991 (H1N1) (influenza A virus (H1N1)); experiment: ELISA, recombinant HA
[2] = molecular target: HA of A/Vietnam/1203/2004 (H5N1) (influenza A virus (H5N1)); experiment: ELISA, recombinant HA
[3] = molecular target: HA of A/Taiwan/2/2013 (H6) (Influenza A virus A/Taiwan/2/2013 (H6)); experiment: ELISA, recombinant HA
[4] = molecular target: HA of A/shearwater/Western Australia/2576/1979 (H15N9) (influenza A virus (H15N9)); experiment: ELISA, recombinant HA
[5] = molecular target: HA of A/Indonesia/5/2005 (H5N1) (influenza A virus (H5N1)); experiment: ELISA, recombinant HA
[6] = molecular target: HA of A/Solomon Islands/03/2006 (H1N1) (influenza A virus (H1N1)); experiment: ELISA, recombinant HA
[7] = molecular target: HA of A/black-headed gull/Sweden/4/1999 (H16) (influenza A virus (H16)); experiment: ELISA, recombinant HA
[8] = molecular target: HA of A/Fort Monthouth/1947 (H1N1) (influenza A virus (H1N1)); experiment: ELISA, recombinant HA
[9] = molecular target: HA of A/Texas/36/1991 (H1N1) (influenza A virus (H1N1)); experiment: ELISA
[10] = molecular target: HA of A/Shanghai/2/2013 (H7N9) (influenza A virus (H7N9)); experiment: ELISA
[11] = molecular target: HA of A/gull/Maryland/704/1977 (H13) (influenza A virus (H13)); experiment: ELISA
[12] = molecular target: HA of A/Vietnam/1203/2004 (H5N1) (influenza A virus (H5N1)); experiment: ELISA
[13] = molecular target: HA of A/Texas/50/2012 (H3N2) (influenza A virus (H3N2)); experiment: ELISA
[14] = molecular target: HA of A/New York/107/2003 (H7N2) (influenza A virus (H7N2)); experiment: ELISA
[15] = molecular target: HA of A/Switzerland/9715293/2013 (H3) (influenza A virus (H3)); experiment: ELISA
[16] = molecular target: HA of A/Indonesia/5/2005 (H5N1) (influenza A virus (H5N1)); experiment: ELISA
[17] = molecular target: HA of A/mallard duck/Astrakhan/263/1982 (H14N5) (influenza A virus (H14N5)); experiment: ELISA
[18] = molecular target: HA of A/Solomon Islands/03/2006 (H1N1) (influenza A virus (H1N1)); experiment: ELISA
[19] = molecular target: HA of A/black-headed gull/Sweden/4/1999 (H16) (influenza A virus (H16)); experiment: ELISA
[20] = molecular target: HA of A/Hong Kong/1073/99 (H9) (influenza A virus (H9)); experiment: ELISA
[21] = molecular target: HA of A/Minnesota/11/10 (H3) (influenza A virus (H3)); experiment: ELISA
[22] = molecular target: HA of A/Texas/36/1991 (H1N1) (influenza A virus (H1N1)); experiment: ELISA; remark: listed apart in the source
[23] = molecular target: HA of A/Shanghai/2/2013 (H7N9) (influenza A virus (H7N9)); experiment: ELISA; remark: listed apart in the source
[24] = molecular target: HA of A/Texas/50/2012 (H3N2) (influenza A virus (H3N2)); experiment: ELISA; remark: listed apart in the source
[25] = molecular target: HA of A/Netherlands/219/2003 (H7N7) (influenza A virus (H7N7)); experiment: ELISA
[26] = molecular target: HA of A/shearwater/Western Australia/2576/1979 (H15N9) (influenza A virus (H15N9)); experiment: ELISA
[27] = molecular target: HA of A/Switzerland/9715293/2013 (H3) (influenza A virus (H3)); experiment: ELISA; remark: listed apart in the source
[28] = molecular target: HA of A/Indonesia/5/2005 (H5N1) (influenza A virus (H5N1)); experiment: ELISA; remark: listed apart in the source
[29] = molecular target: HA of A/mallard duck/Astrakhan/263/1982 (H14N5) (influenza A virus (H14N5)); experiment: ELISA; remark: listed apart in the source
[30] = molecular target: HA of A/Solomon Islands/03/2006 (H1N1) (influenza A virus (H1N1)); experiment: ELISA; remark: listed apart in the source
[31] = molecular target: HA of A/Hong Kong/1073/99 (H9) (influenza A virus (H9)); experiment: ELISA; remark: listed apart in the source
[32] = molecular target: dimeric recombinant soluble FcγRIIIa (CD16a), V176 (UniProt P08637)
[33] = molecular target: HA of A/chicken/Germany/N/1948 (H10N7) (influenza A virus (H10N7)); experiment: ELISA, recombinant HA
[34] = molecular target: HA of A/Taiwan/2/2013 (H6) (Influenza A virus A/Taiwan/2/2013 (H6)); experiment: ELISA, recombinant HA; remark: listed apart in the source
[35] = molecular target: HA of A/Netherlands/219/2003 (H7N7) (influenza A virus (H7N7)); experiment: ELISA, recombinant HA
[36] = molecular target: HA of A/shearwater/Western Australia/2576/1979 (H15N9) (influenza A virus (H15N9)); experiment: ELISA, recombinant HA; remark: listed apart in the source
[37] = molecular target: HA of A/Fort Monthouth/1947 (H1N1) (influenza A virus (H1N1)); experiment: ELISA, recombinant HA; remark: listed apart in the source
[38] = molecular target: HA of A/Shanghai/2/2013 (H7N9) (influenza A virus (H7N9)); experiment: ELISA, recombinant HA
[39] = molecular target: HA of A/chicken/Germany/N/1948 (H10N7) (influenza A virus (H10N7)); experiment: ELISA, recombinant HA; remark: listed apart in the source
[40] = molecular target: HA of A/Texas/50/2012 (H3N2) (influenza A virus (H3N2)); experiment: ELISA, recombinant HA
[41] = molecular target: HA of A/Netherlands/219/2003 (H7N7) (influenza A virus (H7N7)); experiment: ELISA, recombinant HA; remark: listed apart in the source
[42] = molecular target: HA of A/mallard duck/Astrakhan/263/1982 (H14N5) (influenza A virus (H14N5)); experiment: ELISA, recombinant HA
[43] = molecular target: HA of A/turkey/Ontario/6118/1967 (H8) (Influenza A virus A/turkey/Ontario/6118/1967 (H8)); experiment: ELISA, recombinant HA
[44] = molecular target: HA of A/Hong Kong/1073/99 (H9) (influenza A virus (H9)); experiment: ELISA, recombinant HA
[45] = molecular target: HA of A/duck/Memphis/546/1974 (H11) (Influenza A virus A/duck/Memphis/546/1974 (H11)); experiment: ELISA, recombinant HA
[46] = molecular target: HA of A/California/07/2004 (H3) (Influenza A virus A/California/07/2004 (H3)); experiment: ELISA, recombinant HA
[47] = molecular target: dimeric recombinant soluble FcγRIIIa (CD16a), V176 (UniProt P08637); remark: listed apart in the source
[48] = molecular target: HA of A/Vietnam/1203/2004 (H5N1) (influenza A virus (H5N1)); experiment: BLI, Fab on immobilized biotinylated HA
[49] = molecular target: HA of A/Indonesia/5/2005 (H5N1) (influenza A virus (H5N1)); experiment: BLI, Fab on immobilized biotinylated HA
[50] = molecular target: HA of A/Solomon Islands/03/2006 (H1N1) (influenza A virus (H1N1)); experiment: BLI, Fab on immobilized biotinylated HA
[51] = molecular target: HA of A/Victoria/361/2011 (H3N2) (influenza A virus (H3N2)); experiment: BLI, Fab on immobilized biotinylated HA
[52] = molecular target: HA of A/Texas/36/1991 (H1N1) (influenza A virus (H1N1)); experiment: ELISA, recombinant HA; remark: listed apart in the source
[53] = molecular target: HA of A/Shanghai/2/2013 (H7N9) (influenza A virus (H7N9)); experiment: ELISA, recombinant HA; remark: listed apart in the source
[54] = molecular target: HA of A/Texas/50/2012 (H3N2) (influenza A virus (H3N2)); experiment: ELISA, recombinant HA; remark: listed apart in the source
[55] = molecular target: HA of A/Switzerland/9715293/2013 (H3) (influenza A virus (H3)); experiment: ELISA, recombinant HA
[56] = molecular target: HA of A/Indonesia/5/2005 (H5N1) (influenza A virus (H5N1)); experiment: ELISA, recombinant HA; remark: listed apart in the source
[57] = molecular target: HA of A/mallard duck/Astrakhan/263/1982 (H14N5) (influenza A virus (H14N5)); experiment: ELISA, recombinant HA; remark: listed apart in the source
[58] = molecular target: HA of A/Solomon Islands/03/2006 (H1N1) (influenza A virus (H1N1)); experiment: ELISA, recombinant HA; remark: listed apart in the source
[59] = molecular target: HA of A/Hong Kong/1073/99 (H9) (influenza A virus (H9)); experiment: ELISA, recombinant HA; remark: listed apart in the source

Chain of dimeric recombinant soluble FcγRIIIa (CD16a), V176 (P08637 17-208 F176V limits assumed): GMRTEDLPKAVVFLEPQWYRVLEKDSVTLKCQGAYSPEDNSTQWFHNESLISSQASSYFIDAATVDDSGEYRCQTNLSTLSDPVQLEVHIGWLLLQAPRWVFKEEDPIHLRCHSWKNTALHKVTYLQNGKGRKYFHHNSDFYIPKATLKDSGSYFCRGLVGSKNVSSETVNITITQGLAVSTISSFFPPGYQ

Substance: CR6261 (antibody)
- EC50 [1]: 0.025 µg/mL
- EC50 [2]: 0.031 µg/mL
- EC50 [3]: 0.048 µg/mL
- EC50 [4]: 0.061 µg/mL
- EC50 [5]: 0.026 µg/mL
- EC50 [6]: 0.013 µg/mL
- EC50 [7]: 0.245 µg/mL
- EC50 [8]: 0.043 µg/mL

Substance: FluA-20 (hybridoma-produced IgG) (antibody)
- EC50 [9]: 0.004 µg/mL
- EC50 [10]: 0.066 µg/mL
- EC50 [11]: 0.07 µg/mL
- EC50 [12]: 0.283 µg/mL
- EC50 [13]: 0.004 µg/mL
- EC50 [14]: 0.808 µg/mL
- EC50 [15]: 0.019 µg/mL
- EC50 [16]: 0.085 µg/mL
- EC50 [17]: 0.013 µg/mL
- EC50 [18]: 0.005 µg/mL
- EC50 [19]: > 10 µg/mL
- EC50 [20]: 0.009 µg/mL
- EC50 [21]: > 10 µg/mL
- EC50 [22]: 0.05 µg/mL
- EC50 [23]: 0.12 µg/mL
- EC50 [24]: 0.09 µg/mL
- EC50 [25]: 0.05 µg/mL
- EC50 [26]: 0.08 µg/mL
- EC50 [27]: 0.55 µg/mL
- EC50 [28]: 6.05 µg/mL
- EC50 [29]: 0.95 µg/mL
- EC50 [30]: 0.05 µg/mL
- EC50 [31]: 0.41 µg/mL
- EC50 (read off the curve) [32]: 0.3 µg/mL
- EC50 [33]: 0.031 µg/mL
- EC50 [34]: 0.147 µg/mL
- EC50 [35]: 0.029 µg/mL
- EC50 [36]: 0.015 µg/mL
- EC50 [37]: 0.012 µg/mL
- EC50 [1]: 0.009 µg/mL
- EC50 [38]: 0.012 µg/mL
- EC50 [2]: 0.142 µg/mL
- EC50 [39]: 0.037 µg/mL
- EC50 [3]: 0.061 µg/mL
- EC50 [40]: 0.006 µg/mL
- EC50 [41]: 0.006 µg/mL
- EC50 [4]: 0.007 µg/mL
- EC50 [5]: 0.016 µg/mL
- EC50 [42]: 0.007 µg/mL
- EC50 [6]: 0.008 µg/mL
- EC50 [43]: 0.005 µg/mL
- EC50 [44]: 0.007 µg/mL
- EC50 [8]: 0.007 µg/mL
- EC50 [45]: 0.072 µg/mL
- EC50 [46]: 0.008 µg/mL
- EC50 (read off the curve) [47]: 0.3 µg/mL

Substance: FluA-20 Fab
- Kd [48]: 122 nM
- Kd [49]: 88 nM
- Kd [50]: 2 nM
- Kd [51]: 15 nM

Substance: rFluA-20 (recombinant FluA-20 IgG) (antibody)
- EC50 [22]: 0.008 µg/mL
- EC50 [23]: 0.013 µg/mL
- EC50 [24]: 0.007 µg/mL
- EC50 [25]: 0.005 µg/mL
- EC50 [26]: 0.007 µg/mL
- EC50 [28]: 0.016 µg/mL
- EC50 [29]: 0.007 µg/mL
- EC50 [30]: 0.008 µg/mL
- EC50 [31]: 0.007 µg/mL
- EC50 [52]: 0.046 µg/mL
- EC50 [53]: 0.117 µg/mL
- EC50 [33]: 0.129 µg/mL
- EC50 [34]: 0.229 µg/mL
- EC50 [54]: 0.086 µg/mL
- EC50 [35]: 0.054 µg/mL
- EC50 [36]: 0.136 µg/mL
- EC50 [55]: 0.548 µg/mL
- EC50 [56]: 6.05 µg/mL
- EC50 [57]: 0.071 µg/mL
- EC50 [58]: 0.047 µg/mL
- EC50 [59]: 0.407 µg/mL
- EC50 [37]: 0.02 µg/mL
- EC50 [2]: 0.133 µg/mL
- EC50 [39]: 0.041 µg/mL
- EC50 [3]: 0.063 µg/mL
- EC50 [43]: 0.005 µg/mL
- EC50 [8]: 0.007 µg/mL
- EC50 [45]: 0.076 µg/mL
- EC50 [46]: 0.009 µg/mL
